By Kd is commonly meant a measure of binding affinity in units of concentration. In general, koff refers to a measure of how fast the partners let go of each other.

For this test, the target named is T1, human plasma-derived C1-esterase inhibitor (human, UniProt P05155 23-500).
T1 construct: Glycoprotein from plasma; also called pdC1-INH; C1-INH; source: bought: Cinryze, Takeda Pharmaceutical Company (human plasma-derived); also in plasma of healthy donors (functional assay)
T1 sequence (looked up): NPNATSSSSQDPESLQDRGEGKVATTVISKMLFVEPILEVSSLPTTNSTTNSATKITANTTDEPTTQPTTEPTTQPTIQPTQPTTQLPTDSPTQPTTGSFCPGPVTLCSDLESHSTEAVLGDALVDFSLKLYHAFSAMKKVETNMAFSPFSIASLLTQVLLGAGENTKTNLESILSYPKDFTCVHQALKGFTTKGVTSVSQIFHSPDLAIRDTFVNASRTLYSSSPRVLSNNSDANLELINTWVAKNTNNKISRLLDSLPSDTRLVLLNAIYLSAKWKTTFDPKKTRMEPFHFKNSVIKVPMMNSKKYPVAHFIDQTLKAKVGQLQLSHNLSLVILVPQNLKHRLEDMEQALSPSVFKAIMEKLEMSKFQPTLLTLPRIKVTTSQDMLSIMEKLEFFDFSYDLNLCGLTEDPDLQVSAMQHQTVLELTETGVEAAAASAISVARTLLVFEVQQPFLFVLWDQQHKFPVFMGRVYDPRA
Briefly: SPR; Biacore 3000; hGIIA N1A immobilised at 800 RU on a CM5 chip (EDC/NHS), BSA as reference channel; C1-INH injected at 10, 20, 30, 40, 50 µM in HBS (10 mM Hepes, pH 7.4, 150 mM NaCl, 3 mM EDTA), 30 µL/min; 1:1 Langmuir model. The following applies: both partners purified.

B1: Recombinant human group IIA secreted phospholipase A2, N1A catalytically active mutant (enzyme, UniProt P14555 21-144, looked up)
chain: ALVNFHRMIKLTTGKEAALSYGFYGCHCGVGGRGSPKDATDRCCVTHDCCYKRLEKRGCGTKFLSYKFSNSGSRITCAKQDSCRSQLCECDKAAATCFARNKTTYNKKYQYYSNKHCRGSTPRC
notes: human group IIA secreted phospholipase A2 (hGIIA), UniProt P14555; N1A mutation facilitates the removal of the initiator methionine; PDB 1DCY chain A covers aa 1-124; also called hGIIA; hGIIA N1A
As for B1, the affinity, expressed as Kd, was 6.7 µM and the koff was determined as 0.0125 s⁻¹.

These data come from publication PMC9845149, “Interplay between C1-inhibitor and group IIA secreted phospholipase A2 impairs their respective function” (Immunologic Research, 2022).
